{"source": "paper PMC8971729", "about": "(2022)", "binders": {"B1": {"name": "HAdV-B3 fiber knob (domain or fragment)", "chain": "NSIALKNNTLWTGPKPEANCIIEYGKQNPDSKLTLILVKNGGIVNGYVTLMGASDYVNTLFKNKNVSINVELYFDATGHILPDSSSLKTDLELKYKQTADFSARGFMPSTTAYPFVLPNAGTHNENYIFGQCYYKASDGALFPLEVTVMLNKRLPDSRTSYVMTFLWSLNAGLAPETTQATLITSPFTFSYIREDD"}, "B2": {"name": "HAdV-C5 fiber knob protein (domain or fragment)", "chain": "KNNDKLTLWTTPAPSPNCRLNAEKDAKLTLVLTKCGSQILATVSVLAVKGSLAPISGTVQSAHLIIRFDENGVLLNNSFLDPEYWNFRNGDLTEGTAYTNAVGFMPNLSAYPKSHGKTAKSNIVSQVYLNGDKTKPVTLTITLNGTQETGDTTPSAYSMSFSWDWSGHNYINEIFATSSYTFSYIAQE"}, "B3": {"name": "human CXADR Fc chimera protein (CAR) (Fc fusion)", "chain": "LSITTPEEMIEKAKGETAYLPCKFTLSPEDQGPLDIEWLISPADNQKVDQVIILYSGDKIYDDYYPDLKGRVHFTSNDLKSGDASINVTNLQLSDIGTYQCKVKKAPGVANKKIHLVVLVKPSGARCYVDGSEEIGSDFKIKCEPKEGSLPLQYEWQKLSDSQKMPTSWLAEMTSSVISVKNASSEYSGTYSCTVRNRVGSDQCLLRLNVVPPSNKAG"}}, "assay_in_all_cases": "SPR", "key": {"[1]": {"biological_target": "T1, human CD46 protein (His tag) (human, UniProt P15529)", "T1 chain": "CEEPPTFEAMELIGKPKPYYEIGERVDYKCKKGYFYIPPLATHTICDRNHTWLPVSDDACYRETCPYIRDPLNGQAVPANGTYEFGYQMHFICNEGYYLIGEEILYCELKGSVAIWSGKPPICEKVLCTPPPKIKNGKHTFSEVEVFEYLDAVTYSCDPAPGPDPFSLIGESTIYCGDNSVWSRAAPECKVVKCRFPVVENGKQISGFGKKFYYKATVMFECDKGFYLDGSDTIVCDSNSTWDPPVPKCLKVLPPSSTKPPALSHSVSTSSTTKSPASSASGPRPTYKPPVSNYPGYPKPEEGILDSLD"}, "[2]": {"biological_target": "T2, Human desmoglein-2 Fc chimera protein (DSG2) (human, UniProt Q14126)", "T2 chain": "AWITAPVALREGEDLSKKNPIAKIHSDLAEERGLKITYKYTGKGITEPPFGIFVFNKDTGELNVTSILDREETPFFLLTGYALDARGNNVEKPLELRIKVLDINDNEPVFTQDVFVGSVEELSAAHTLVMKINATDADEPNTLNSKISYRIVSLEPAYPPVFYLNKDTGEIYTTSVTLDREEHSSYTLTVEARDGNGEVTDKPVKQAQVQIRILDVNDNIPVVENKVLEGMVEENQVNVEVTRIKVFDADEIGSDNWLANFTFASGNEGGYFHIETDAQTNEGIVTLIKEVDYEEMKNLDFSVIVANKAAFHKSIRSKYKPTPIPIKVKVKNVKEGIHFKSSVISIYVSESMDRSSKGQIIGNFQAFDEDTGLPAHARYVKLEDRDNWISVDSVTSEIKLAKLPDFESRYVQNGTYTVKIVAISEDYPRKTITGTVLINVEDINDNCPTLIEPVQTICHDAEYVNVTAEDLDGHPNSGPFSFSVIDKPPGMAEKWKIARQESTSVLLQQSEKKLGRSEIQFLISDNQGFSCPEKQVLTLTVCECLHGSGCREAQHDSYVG"}, "[3]": {"biological_target": "T1, human CD46 protein (His tag)"}, "[4]": {"biological_target": "B3"}, "[5]": {"biological_target": "HAdV-D10 fiber knob protein (human adenovirus type 10 (HAdV-D10))"}}}
{"binder": "B1", "values": [{"measurement": "koff", "setting": "[1]", "result": 0.025, "unit": "s⁻¹"}, {"measurement": "Kd", "setting": "[2]", "result": 66.9, "unit": "µM"}, {"measurement": "Kd", "setting": "[3]", "result": 0.16, "unit": "µM"}]}
{"binder": "B2", "values": [{"measurement": "koff", "setting": "[4]", "result": 0.0019, "unit": "s⁻¹"}]}
{"binder": "B3", "values": [{"measurement": "koff", "setting": "[5]", "result": 0.0019, "unit": "s⁻¹"}]}
